*1 amine or outer side, *2 acyl side, *3 side chain or, on linkers, in order; H or OH if unused. Where a SMILES comes first, the peptide text is derived from it. Where no end group is shown, it is not given here. Side-chain parts run from the residue outwards. [ ]: non-standard residue; d: D form. The star is where a group is joined. C18 diacid = O=C(O)CCCCCCCCCCCCCCCCC(=O)*; C16 diacid = O=C(O)CCCCCCCCCCCCCCC(=O)*; γGlu = O=C(O)[C@H](CCC(=O)[*:2])N[*:1]; AEEA = NCCOCCOCC(=O)O; Aib = CC(C)(N)C(=O)O
Assays:
[1] = target: T1, CFR1R receptor (Homo sapiens, UniProt P34998); assay: Activity at anti-target CFR1R receptor, cAMP assay in CRF1R-overexpression CHO-K1 cells; format: cell-based; conditions: 100% = Sauvagine at 100 nM
T1 construct: host or cells: CHO-K1 (clone 2)
T1 sequence (P34998 24-415): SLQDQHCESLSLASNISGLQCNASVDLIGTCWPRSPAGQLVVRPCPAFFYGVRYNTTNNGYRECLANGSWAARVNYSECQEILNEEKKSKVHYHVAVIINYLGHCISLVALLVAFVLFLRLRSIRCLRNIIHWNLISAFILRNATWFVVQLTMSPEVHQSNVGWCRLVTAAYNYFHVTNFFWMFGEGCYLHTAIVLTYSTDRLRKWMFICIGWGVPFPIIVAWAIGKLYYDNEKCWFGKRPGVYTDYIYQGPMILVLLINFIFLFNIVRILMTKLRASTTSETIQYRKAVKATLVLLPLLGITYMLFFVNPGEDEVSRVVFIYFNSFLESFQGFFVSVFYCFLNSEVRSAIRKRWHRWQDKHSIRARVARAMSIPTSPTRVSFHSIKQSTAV
Procedure: Assessment of activity at anti-target CFR1R receptor is done using the same procedure as the one described for the TeloHEAC cell line. The CRF1R-overexpression CHO-K1 cell line clone 2 was purchased from PerkinElmer. Cells were grown in a 10 cm dish at 37° C./5% CO2 in medium (F12 (Hams)/10% FBS/400 μg/ml G418) to near confluence. At that stage, cells were harvested, resuspended to 10 million/mL in culture medium without G418 and with 10% DMSO. 1 mL vial aliquots were slowly frozen to −80° C. in isopropanol and then transferred in liquid nitrogen for storage. These vials were used to run the experiment following the procedure reported in the previous paragraph, except for the compound used in the control well to define the 100% activation (Sauvagine at 100 nM) and the cell density (final cell density: 4000 cells/well)

[2] = target: T2, CRF1R receptor (UniProt P34998 24-415, limits assumed); assay: cell-based or functional assay
T2 sequence (looked up): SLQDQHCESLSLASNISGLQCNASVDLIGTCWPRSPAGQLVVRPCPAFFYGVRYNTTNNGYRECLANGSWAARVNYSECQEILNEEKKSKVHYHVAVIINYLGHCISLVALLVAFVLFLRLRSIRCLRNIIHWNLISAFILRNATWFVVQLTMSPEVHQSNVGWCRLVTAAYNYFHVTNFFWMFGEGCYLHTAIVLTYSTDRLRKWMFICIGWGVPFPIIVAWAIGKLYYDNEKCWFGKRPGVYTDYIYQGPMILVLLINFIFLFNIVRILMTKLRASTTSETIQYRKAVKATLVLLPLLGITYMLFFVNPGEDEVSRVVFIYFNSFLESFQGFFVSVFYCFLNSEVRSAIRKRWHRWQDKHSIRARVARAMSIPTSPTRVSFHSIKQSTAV

| Molecule | Emax (% I) [1] [% I] | EC50 [2] [nM] | Emax (% I) [2] [%] |
| --- | --- | --- | --- |
| CC[C@H](C)[C@H](N)C(=O)N[C@H](C(=O)N[C@@H](CC(C)C)C(=O)N[C@@H](CO)C(=O)N[C@@H](CC(C)C)C(=O)N[C@@H](CC(=O)O)C(=O)N[C@H](C(=O)N1CCC[C@H]1C(=O)N[C@H](C(=O)N[C@@H](CCCCN)C(=O)N[C@@H](CC(C)C)C(=O)N[C@@H](CCCCNC(=O)COCCOCCNC(=O)COCCOCCNC(=O)CC[C@H](NC(=O)CC[C@H](NC(=O)CCCCCCCCCCCCCCCCC(=O)O)C(=O)O)C(=O)O)C(=O)N[C@@H](CCC(N)=O)C(=O)NC(C)(C)C(=O)N[C@@H](CC(C)C)C(=O)N[C@@H](CC(C)C)C(=O)N[C@@H](CCCCN)C(=O)N[C@@H](CCC(N)=O)C(=O)N[C@@H](CCC(=O)O)C(=O)N[C@@H](CCCNC(=N)N)C(=O)N[C@@H](CCC(N)=O)C(=O)N[C@@H](CCCCN)C(=O)N[C@@H](CCCCN)C(=O)N[C@@H](CCC(N)=O)C(=O)N[C@@H](CCCNC(=N)N)C(=O)N[C@@H](CCC(=O)O)C(=O)N[C@@H](CCC(N)=O)C(=O)N[C@@H](C)C(=O)N[C@@H](CCC(=O)O)C(=O)N[C@@H](CCCCN)C(=O)N[C@@H](CC(N)=O)C(=O)NC(C)(C)C(=O)N[C@@H](CCC(N)=O)C(=O)N[C@H](C(=O)N[C@@H](CC(C)C)C(=O)N[C@@H](CCC(=O)O)C(=O)N[C@@H](CCC(N)=O)C(=O)N[C@H](C(N)=O)C(C)C)[C@@H](C)CC)[C@@H](C)CC)C(C)C)C(C)C [compound 25] (H-IVLSLDVPIKLK([AEEA-AEEA-γGlu-γGlu-C18 diacid])Q[Aib]LLKQERQKKQREQAEKN[Aib]QILEQV-NH2) | 6 | – | – |
| IVLSLD[dV]PIKLK([γGlu-C16 diacid])QILLKQERQKKQREQAEKNKQILEQV-NH2 (N-terminus assumed; SMILES CC[C@H](C)[C@H](N)C(=O)N[C@H](C(=O)N[C@@H](CC(C)C)C(=O)N[C@@H](CO)C(=O)N[C@@H](CC(C)C)C(=O)N[C@@H](CC(=O)O)C(=O)N[C@@H](C(=O)N1CCC[C@H]1C(=O)N[C@H](C(=O)N[C@@H](CCCCN)C(=O)N[C@@H](CC(C)C)C(=O)N[C@@H](CCCCNC(=O)CC[C@H](NC(=O)CCCCCCCCCCCCCCC(=O)O)C(=O)O)C(=O)N[C@@H](CCC(N)=O)C(=O)N[C@H](C(=O)N[C@@H](CC(C)C)C(=O)N[C@@H](CC(C)C)C(=O)N[C@@H](CCCCN)C(=O)N[C@@H](CCC(N)=O)C(=O)N[C@@H](CCC(=O)O)C(=O)N[C@@H](CCCNC(=N)N)C(=O)N[C@@H](CCC(N)=O)C(=O)N[C@@H](CCCCN)C(=O)N[C@@H](CCCCN)C(=O)N[C@@H](CCC(N)=O)C(=O)N[C@@H](CCCNC(=N)N)C(=O)N[C@@H](CCC(=O)O)C(=O)N[C@@H](CCC(N)=O)C(=O)N[C@@H](C)C(=O)N[C@@H](CCC(=O)O)C(=O)N[C@@H](CCCCN)C(=O)N[C@@H](CC(N)=O)C(=O)N[C@@H](CCCCN)C(=O)N[C@@H](CCC(N)=O)C(=O)N[C@H](C(=O)N[C@@H](CC(C)C)C(=O)N[C@@H](CCC(=O)O)C(=O)N[C@@H](CCC(N)=O)C(=O)N[C@H](C(N)=O)C(C)C)[C@@H](C)CC)[C@@H](C)CC)[C@@H](C)CC)C(C)C)C(C)C) [SEQ ID NO 151] | – | 25.3 | 53 |
| IVLSLD[dV]PIKLK([AEEA-AEEA-γGlu-C18 diacid])QILLKQERQKKQREQAEKNKQILEQV-NH2 (N-terminus assumed; SMILES CC[C@H](C)[C@H](N)C(=O)N[C@H](C(=O)N[C@@H](CC(C)C)C(=O)N[C@@H](CO)C(=O)N[C@@H](CC(C)C)C(=O)N[C@@H](CC(=O)O)C(=O)N[C@@H](C(=O)N1CCC[C@H]1C(=O)N[C@H](C(=O)N[C@@H](CCCCN)C(=O)N[C@@H](CC(C)C)C(=O)N[C@@H](CCCCNC(=O)COCCOCCNC(=O)COCCOCCNC(=O)CC[C@H](NC(=O)CCCCCCCCCCCCCCCCC(=O)O)C(=O)O)C(=O)N[C@@H](CCC(N)=O)C(=O)N[C@H](C(=O)N[C@@H](CC(C)C)C(=O)N[C@@H](CC(C)C)C(=O)N[C@@H](CCCCN)C(=O)N[C@@H](CCC(N)=O)C(=O)N[C@@H](CCC(=O)O)C(=O)N[C@@H](CCCNC(=N)N)C(=O)N[C@@H](CCC(N)=O)C(=O)N[C@@H](CCCCN)C(=O)N[C@@H](CCCCN)C(=O)N[C@@H](CCC(N)=O)C(=O)N[C@@H](CCCNC(=N)N)C(=O)N[C@@H](CCC(=O)O)C(=O)N[C@@H](CCC(N)=O)C(=O)N[C@@H](C)C(=O)N[C@@H](CCC(=O)O)C(=O)N[C@@H](CCCCN)C(=O)N[C@@H](CC(N)=O)C(=O)N[C@@H](CCCCN)C(=O)N[C@@H](CCC(N)=O)C(=O)N[C@H](C(=O)N[C@@H](CC(C)C)C(=O)N[C@@H](CCC(=O)O)C(=O)N[C@@H](CCC(N)=O)C(=O)N[C@H](C(N)=O)C(C)C)[C@@H](C)CC)[C@@H](C)CC)[C@@H](C)CC)C(C)C)C(C)C) [SEQ ID NO 150] | – | – | 38 |

From patent US20260001928A1 (CORTERIA PHARMACEUTICALS, priority 2022, published 2026)
